Results reported in patent US20110293610A1 (published 2011).
Residue numbers refer to the chain shown, from its start.

T1: TNF-beta (human, UniProt P01374 35-205)
T1 construct: also called TNFβ; Tumour Necrosis Factor-beta
T1 sequence (looked up): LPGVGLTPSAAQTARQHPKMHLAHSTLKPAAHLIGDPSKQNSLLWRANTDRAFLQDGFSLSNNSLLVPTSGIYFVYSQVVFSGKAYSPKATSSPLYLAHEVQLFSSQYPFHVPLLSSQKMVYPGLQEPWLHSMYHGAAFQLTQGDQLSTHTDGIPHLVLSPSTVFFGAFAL

B1: I078D08 (scFv)
scFv: QVNLRESGGGLVQPGGSLRLSCAASGFTFSSYWMSWVRQAPGKGLEWVANIKQDGSEKYYVDSVKGRFTISRDNSKNTLYLQMNSLRAEDTAVYYCARDAQSYYDILTGYQSYAFDIWGQGTTVTVSSGGGGSGGGGSGGGGSSELTQDPAVSVALGQTVRITCQGDSLRSYYTNWFQQKPGQAPLLVVYAKNKRPSGIPDRFSGSSSGNTASLTITGAQAEDEADYYCHSRDSSGNHVLFGGGTKLTVLG
B2: I075G01 (scFv)
scFv: QVQLVQSGAEVKKPGASVKVSCKTSGYTFTGYNINWVRQAPGQGLEWMGWVSPSNGDTSYAQTFQGRVTMTRDTSISTAYMELSSLKSDDTAVYYCARDHFDTLTGYFRRLDSWGQGTLVTVSSGGGGSGGGGSGGGGSALSSELTQDPEVSVALGQTVTITCQGDSLITHYASWFQQKPGQAPLLVFYSKDKRPSGIPDRFSGSYSGNTASLTITGAQAEDEADYYCNSRDSRGKNHVAFGGGTKLTVLG
B3: I072B09 (scFv)
scFv: QVQLQQSGAEVKKPGASVKVSCRASGYTFTKYTMHWVRQAPGQGPEWMGWINGGSGDTKYSRKFQGRVTITKDTSASAAYMELSSLGSEDTALYYCARATYDPLTGYSFDGFDIWGQGTLVTVSSGGGGSGGGGSGGGGSSELTQDPAVSVALGQTVRITCQGDSLRSYYTNWFQQKPGQAPLLVVYAKNKRPSGIPDRFSGSSSGNTASLTITGAQAEDEADYYCNSRDSSGNHVVFGGGTKLTVLD
B4: I064C04 (scFv)
scFv: QVQLVQSGAEVKKPGASVKVSCEASGYTFTSYGISWVRQAPGQGLEWMGWISTYNGNTRYPQKLQGRVTMTTDTSTSTAYMDLRSLRSDDTAVYYCARDGRLSYDILTGYYARDYYGMDDWGRGTMVTVSSGGGGSGGGGSGGGGSQSVLTQPASVSGSPGQSITISCTGTSSDVGGYNYVSWYQQHPGKAPKLMIYEGSKRPSGVSNRFSGSKSGNTASLTISGLQAEDEADYYCSSYTTRSTRVFGGGTKLTVLG
B5: I064C07 (scFv)
scFv: QVQLVQSGAEVKKPGSSVKVSCKASGGTFSSYAISWVRQAPGQGLEWMGGIIPIFGTANYAQKFQGRVTITADDLTRTAYMEMSSLKFEDTAVYYCASSEGTIFGVDWGRGTLVTVSSGGGGSGGGGSGGGGSDIQMTQSPSFLSASVGDRVTITCRASQGINNYLAWYQQKPGRAPKLLMYAASSLQSGVPSRFSGSGSGTDFTLTISSLQPEDFATYYCLQDSDYPLTFGGGTKLEIKR
B6: I065D04 (scFv)
scFv: QVQLQESGPGLVKPSETLSLTCTVSGGSISSGYYWGWVRQPPGQGLEWIGSIYHSGSTYHNPSLKSRVTISMDTSKNQFSLNLNSVTAADTAVYYCARGKGYYDILTGYYRDNWFDPWGRGTLVTVSSGGGGSGGGGSGGGGSQSVLTQPASVSGSPGQSITISCTGTSSDVGGYNYVSWYQQHPGKAPKLMIYEGSKRPSGVSNRFSGSKSGNTASLTISGLQAEDEADYYCSSYTTRSTRVFGGGTKLTVLG
B7: I068C08 (scFv)
scFv: QVQLQQSGAEVKKPGSSVKVSCQASGGSFSREGISWVRQAPGHGLEWMGRIIPVLGVADYAQKFQGRVKISVDRLTSVAYMELTSLRFEDTAVYYCAREGMNDFINSHHYYTMDAWGQGTLVTVSSGGGGSGGGGSGGGGSAQAVLTQPSSVSGAPGQRVTISCTGSSSNIGAGYDVHWYQQLPGTAPKLLIYGNSNRPSGVPDRFSGSKSGTSASLAITGLQAEDEADYYCQSYDSSLSGSVFGGGTKLTVLG
B8: I068F03 (scFv)
scFv: EVQLVQSGADVKKPGASVKVSCKASHYPFTTYGVSWVRQAPGQGLEWMGWISNYNGHTRYAPKFQGRVTLTTDTLTNTAFMELKSLTSDDTAIYYCARAGNEYGHTERPADYWGKGTMVTVSSGGGGSGGGGSGGGGSAQAVLTQPSSVSGAPGQRVTISCTGSSSNIGAGYDVHWYQQLPGTTPKLLISRNNNRPPGVPDRFSGSKSGTSASLAITGLQAEDEADYYCQSYDTTLRGWVFGGGTKVTVLG
B9: I069B07 (scFv)
scFv: QVQLVQSGAEVKKPGASVKVSCKASGYTFTSYGISWVRQAPGQGLEWMGWISAYNGNTNYAQKLQGRVTMTTDTSTSTAYMELRSLRSEDTAVYYCARMEYDILTGYYGGYFDYWGQGTMVTVSSGGGGSGGGGSGGGGSQSVLTQPASVSGSPGQSITISCTGTSSDVGGYNYVSWYQQHPGKAPKLMIYEGSKRPSGVSNRFSGSKSGNTASLTISGLQAEDEADYYCSSYTTRSTRVFGGGTKLTVLG
B10: I071B03 (scFv)
scFv: QVQLQQSGAEVKKPGASVKVSCKASGYTFTKYTMHWVRQAPGQGPEWMGWINGGSGDTKYSRKFQGRVTITKDTSASAAYMELSSLGSEDTALYYCARATYDPLTGYSFDGFDIWGQGTMVTVSSGGGGSGGGGSGGGGSQSVLTQPASVSGSPGQSITISCTGTSSDVGGYNYVSWYQQHPGKAPKLMIYEGSKRPSGVSNRFSGSKSGNTASLTISGLQAEDEADYYCSSYTTRSTRVFGGGTKLTVLD
B11: I026C04 (scFv)
scFv: QVQLVQSGAEVKKPGSSVKVSCRASGGSFNHAISWVRQAPGRGLEWMGGILPMYGTANYAQKFQGRVTITADKLTNTVYMDLSRLRYEDTAVYYCARELGLSIVGATTGALDMWGKGTLVTVSSGGGGSGGGGSGGGGSAQSVLTQPPSVSAAPGQKVTISCSGSSSNIGNNYVSWYQQIPGTAPKLLIYENNKRPSGIPDRFSGSKSGASATLDITGLQTGDEADYYCGTWHSSQVVFGGGTKLTVLG
B12: I025B06 (scFv)
scFv: B11 scFv with T213A
B13: I025B09 (scFv)
scFv: B11 scFv with Q3H
B14: I073F04 (scFv)
scFv: QVQLQQSGAEVKKPGSSVKVSCKASGGTFRSYAFSWVRQAPGQGLEWMGYIVPVFGTATYAQNFQGRVTITADELTTTAFMELSSLTSEDTAVYYCARSLATRPLGMDVWGRGTTVTVSSGGGGSGGGGSGGGGSQSVLTQPASVSGSPGQSITISCTGTSSDVGGYNYVSWYQQHPGKAPKLMIYEGSKRPSGVSNRFSGSKSGNTASLTISGLQAEDEADYYCSSYTTRSTRVFGGGTKLTVLG
B15: I065D04 (scFv)
scFv: B6 scFv
B16: I003C06 (scFv)
scFv: QVQLVQSGAEVKKPGSSVKVSCRASGGSFNHAISWVRQAPGRGLEWMGGILPMYGTANYAQKFQGRVTITADKLTNTVYMDLSRLRYEDTAVYYCARELGLSIVGATTGALDMWGKGTLVTVSSGGGGSGGGGSGGGGSALPVLTQPPSVSVAPGQTATLTCGGTNFGRQSVHWYQQKPGQAPVLAIYHDDVRPSGIPERLSGSKSGNTATLTISRVEAGDEAAYYCQVWDSGSDVVVFGGGTKLTVLG

These binders were tested against T2, B Lymphocyte Stimulator, soluble form (human) (human, UniProt Q9Y275 134-285, biotinylated with NHS-biotin where used as biotinylated B Lymphocyte Stimulator) (assay: phage ELISA).
T2 construct: Coated on plastic, captured on streptavidin plates, amine-coupled to a CM5 chip or free in solution, depending on the assay; also called BLyS; immobilized B Lymphocyte Stimulator
B1: binds. B2: binds. B3: binds. B4: binds. B5: binds. B6: binds. B7: binds. B8: binds. B9: binds.

These binders were tested against LIGHT (human, UniProt O43557 74-240, limits assumed) (assay: phage ELISA).
Sequence of LIGHT (O43557 74-240 limits assumed): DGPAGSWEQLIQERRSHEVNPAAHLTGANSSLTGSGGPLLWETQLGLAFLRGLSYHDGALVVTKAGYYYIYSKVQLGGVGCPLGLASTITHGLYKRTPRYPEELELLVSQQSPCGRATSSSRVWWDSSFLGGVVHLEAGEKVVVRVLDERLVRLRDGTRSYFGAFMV
B1: no binding. B2: no binding. B3: no binding. B4: no binding. B5: no binding. B6: no binding. B7: no binding. B8: no binding. B9: no binding.

The binders below were run against T3, TNF-alpha (human, UniProt P01375 77-233) (assay: phage ELISA).
T3 construct: also called TNFα; TNF-α
T3 sequence (P01375 77-233 limits assumed): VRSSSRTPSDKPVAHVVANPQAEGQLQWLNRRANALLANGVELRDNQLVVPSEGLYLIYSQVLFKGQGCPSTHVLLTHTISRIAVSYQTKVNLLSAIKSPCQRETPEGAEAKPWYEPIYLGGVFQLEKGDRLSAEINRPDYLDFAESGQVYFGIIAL
B1: no binding. B2: no binding. B3: no binding. B4: no binding. B5: no binding. B6: no binding. B7: no binding. B8: no binding. B9: no binding.

These binders were tested against T1, TNF-beta (assay: phage ELISA).
B1: no binding. B2: no binding. B3: no binding. B4: no binding. B5: no binding. B6: no binding. B7: no binding. B8: no binding. B9: no binding.

These binders were tested against T4, TRAIL (human, UniProt P50591 114-281) (assay: phage ELISA).
T4 construct: also called TNF-related apoptosis inducing ligand
T4 sequence (P50591 114-281 limits assumed): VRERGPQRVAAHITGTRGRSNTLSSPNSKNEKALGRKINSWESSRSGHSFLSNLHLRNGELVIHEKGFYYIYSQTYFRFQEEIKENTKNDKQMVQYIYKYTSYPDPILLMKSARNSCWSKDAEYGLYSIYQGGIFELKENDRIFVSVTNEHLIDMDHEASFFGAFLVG
B1: no binding. B2: no binding. B3: no binding. B4: no binding. B5: no binding. B6: no binding. B7: no binding. B8: no binding. B9: no binding.

Each binder was assayed against T5, biotinylated B Lymphocyte Stimulator, soluble form (human, UniProt Q9Y275 134-285, biotinylated with NHS-biotin, molar ratio 20:1 biotin:protein) (assay: phage scFv, receptor binding inhibition on IM9 cells).
T5 construct: also called bio-B Lymphocyte Stimulator; free B Lymphocyte Stimulator
Protocol: All of the unique phage scFvs from panel 2 were assessed for their ability to inhibit B Lymphocyte Stimulator binding to its cognate receptor on IM9 cells. The biotinylation of B Lymphocyte Stimulator, maintenance of IM9 cells and receptor binding inhibition assay were performed as described in Example 3.
B10: binds. B11: binds. B12: binds. B13: binds. B14: binds. B15: binds. B16: binds.
